Results on 15 molecules are retold here after patent US20170015742A1 (published 2017).

Numbering of substitutions follows the chain as printed.

The labels stand for the following.
B1: 4G8.3-SL-9E8.4 anti-VEGF-A/anti-PDGF-BB DVD-Ig (PR-1564012) (bispecific antibody, human IgG1, kappa, L234A L235A)
heavy: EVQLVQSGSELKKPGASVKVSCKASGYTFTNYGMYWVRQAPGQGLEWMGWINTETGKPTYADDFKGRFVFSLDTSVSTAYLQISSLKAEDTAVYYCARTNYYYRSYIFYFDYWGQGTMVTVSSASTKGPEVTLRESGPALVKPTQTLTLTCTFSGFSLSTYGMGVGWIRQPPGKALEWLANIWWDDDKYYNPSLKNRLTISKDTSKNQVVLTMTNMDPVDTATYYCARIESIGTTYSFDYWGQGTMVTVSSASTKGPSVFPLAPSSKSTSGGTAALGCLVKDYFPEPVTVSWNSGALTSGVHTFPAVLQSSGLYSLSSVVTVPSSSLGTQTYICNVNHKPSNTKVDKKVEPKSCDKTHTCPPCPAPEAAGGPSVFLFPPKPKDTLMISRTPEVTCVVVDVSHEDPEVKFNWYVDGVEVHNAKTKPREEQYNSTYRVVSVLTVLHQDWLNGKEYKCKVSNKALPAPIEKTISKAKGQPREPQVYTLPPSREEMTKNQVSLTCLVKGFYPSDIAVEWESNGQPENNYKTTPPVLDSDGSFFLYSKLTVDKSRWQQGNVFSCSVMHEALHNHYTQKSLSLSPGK
light: DTVLTQSPATLSLSPGERATLSCRASESVSTHMHWYQQKPGQAPRLLIYGASNLESGVPARFSGSGSGTDFTLTISSLEPEDFAVYFCQQSWNDPFTFGQGTKLEIKRTVAAPSVFIFPPEFVLTQSPGTLSLSPGERATLSCERSSGDIGDSYVSWYQQKPGQAPRLVIYADDQRPSGIPDRFSGSGSGTDFTLTISRLEPEDFAVYYCQSYDINIDIVFGGGTKVEIKGTVAAPSVFIFPPSDEQLKSGTASVVCLLNNFYPREAKVQWKVDNALQSGNSQESVTEQDSKDSTYSLSSTLTLSKADYEKHKVYACEVTHQGLSSPVTKSFNRGEC
B2: 4G8.3-LS-9E8.4 anti-VEGF-A/anti-PDGF-BB DVD-Ig (PR-1564013) (bispecific antibody, human IgG1, kappa, L234A L235A)
heavy: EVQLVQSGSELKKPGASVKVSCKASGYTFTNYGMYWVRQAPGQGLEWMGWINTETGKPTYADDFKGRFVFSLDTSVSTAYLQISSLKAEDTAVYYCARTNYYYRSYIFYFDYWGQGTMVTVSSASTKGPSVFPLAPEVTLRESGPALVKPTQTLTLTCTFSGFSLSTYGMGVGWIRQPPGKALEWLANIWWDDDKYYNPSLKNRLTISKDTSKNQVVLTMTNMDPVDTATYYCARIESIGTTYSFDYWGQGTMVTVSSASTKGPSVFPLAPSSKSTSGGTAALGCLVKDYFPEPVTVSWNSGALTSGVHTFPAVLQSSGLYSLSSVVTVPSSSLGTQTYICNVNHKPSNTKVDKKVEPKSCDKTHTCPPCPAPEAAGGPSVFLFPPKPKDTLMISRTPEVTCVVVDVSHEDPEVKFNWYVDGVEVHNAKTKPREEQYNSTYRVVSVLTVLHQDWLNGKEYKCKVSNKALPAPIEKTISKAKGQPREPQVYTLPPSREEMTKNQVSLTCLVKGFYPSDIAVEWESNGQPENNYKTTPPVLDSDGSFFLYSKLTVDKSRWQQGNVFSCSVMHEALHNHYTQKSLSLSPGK
light: DTVLTQSPATLSLSPGERATLSCRASESVSTHMHWYQQKPGQAPRLLIYGASNLESGVPARFSGSGSGTDFTLTISSLEPEDFAVYFCQQSWNDPFTFGQGTKLEIKRTVAAPEFVLTQSPGTLSLSPGERATLSCERSSGDIGDSYVSWYQQKPGQAPRLVIYADDQRPSGIPDRFSGSGSGTDFTLTISRLEPEDFAVYYCQSYDINIDIVFGGGTKVEIKGTVAAPSVFIFPPSDEQLKSGTASVVCLLNNFYPREAKVQWKVDNALQSGNSQESVTEQDSKDSTYSLSSTLTLSKADYEKHKVYACEVTHQGLSSPVTKSFNRGEC
B3: 4G8.3-GS-9E8.4 anti-VEGF-A/anti-PDGF-BB DVD-Ig (PR-1564010) (bispecific antibody, human IgG1, kappa, L234A L235A)
heavy: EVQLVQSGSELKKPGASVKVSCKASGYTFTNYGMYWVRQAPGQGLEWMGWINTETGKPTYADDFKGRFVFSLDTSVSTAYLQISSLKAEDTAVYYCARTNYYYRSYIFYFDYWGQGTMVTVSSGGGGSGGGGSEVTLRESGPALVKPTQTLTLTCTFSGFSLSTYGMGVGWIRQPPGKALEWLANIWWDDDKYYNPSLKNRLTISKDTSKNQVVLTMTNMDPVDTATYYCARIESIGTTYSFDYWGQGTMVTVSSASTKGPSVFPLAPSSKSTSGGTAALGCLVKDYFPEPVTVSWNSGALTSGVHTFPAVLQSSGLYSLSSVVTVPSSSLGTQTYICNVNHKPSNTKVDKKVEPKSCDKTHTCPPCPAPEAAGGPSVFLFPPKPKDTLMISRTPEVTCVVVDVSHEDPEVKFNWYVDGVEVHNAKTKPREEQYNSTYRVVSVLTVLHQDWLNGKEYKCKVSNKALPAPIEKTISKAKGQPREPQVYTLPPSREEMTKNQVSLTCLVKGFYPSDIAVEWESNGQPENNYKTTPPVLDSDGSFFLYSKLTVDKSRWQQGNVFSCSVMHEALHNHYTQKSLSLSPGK
light: DTVLTQSPATLSLSPGERATLSCRASESVSTHMHWYQQKPGQAPRLLIYGASNLESGVPARFSGSGSGTDFTLTISSLEPEDFAVYFCQQSWNDPFTFGQGTKLEIKRGGSGGGGSGEFVLTQSPGTLSLSPGERATLSCERSSGDIGDSYVSWYQQKPGQAPRLVIYADDQRPSGIPDRFSGSGSGTDFTLTISRLEPEDFAVYYCQSYDINIDIVFGGGTKVEIKGTVAAPSVFIFPPSDEQLKSGTASVVCLLNNFYPREAKVQWKVDNALQSGNSQESVTEQDSKDSTYSLSSTLTLSKADYEKHKVYACEVTHQGLSSPVTKSFNRGEC
B4: BEW-8E6-E4 (antibody, IgG2a, V domains shown)
VH: QIQLVQSGPELKKPGESVKISCKASGYTFTDYAMHWVKQAPGKVLKWMGWINTFTGKPTYIDDFKGRFVFSLEASASTANLQISDLKNEDTATYFCARGNYYSGYWYFDFWGPGTMVTMSS
VL: DIQMTQSPASLSASLGETISIECRASEDISSNLAWYQQKSGKSPQLLIFAANRLQDGVPSRFSGSGSGTQFSLKISGMQPEDEGDYFCLQGSKFYTFGAGTKLELK
notes: Rat hybridoma antibody, isotype IgG2a/kappa
B5: BEW-9A8-E2 (antibody, IgG2a, V domains shown)
VH: QIQLVQSGPELKKPGESVKISCKASGYTFTNYGMYWVKQAPGQGLQYMGWINTETGKPIYADDFKGRFVFFLETSASTAYLQINNLKNEDMATFFCARVDYDGSFWFAYWGQGTLVTVSS
VL: DTVLTQSPALAVSPGERVSISCRASESVSTVIHWYQQKPGQQPKLLIHGASNLESGVPARFSGSGSGTDFTLTIDPVEADDTATYFCQQHWNDPPTFGAGTKLEMK
notes: as for B4
B6: BEW-6C2-C8 (antibody, IgG2b, V domains shown)
VH: EVQLVESGGGLVQPGSSLKLSCAASGFTFSYYGMHWIRQAPKKGLEWMALIYYDSSKMYYADSVKGRFTISRDNSKNTLYLEMNSLRSEDTAMYYCAAGGTAPVYWGQGVMVTVSS
VL: NIQLTQSPSLLSASVGDRVTLSCKGSQNIANYLAWYQQKLGEAPKLLIYNTDSLQTGIPSRFSGSGSGTDYTLTISSLQPEDVATYFCYQSNNGYTFGAGTKLELR
notes: Rat hybridoma antibody, isotype IgG2b/kappa
B7: BEW-5C3-E7 (antibody, IgG2b, V domains shown)
VH: QIQLVQSGPELKKPGESVKISCKASGYTFTNYGVYWVKQAPGQGLQYMGWINTETGKPTYADDFKGRFVFFLETSTNTAYLQINNLKNEDMATFFCARARQLDWFVYWGQGTLVTVSS
VL: DTVLTQSPALTVSPGERVSISCRARESLTTSLCWFQQKPGQQPKLLIYGASKLESGVPARFSGSGSGTDFTLTIDPVEADDTATYFCQQSWYDPPTFGGGTKLELK
notes: as for B6
B8: BEW-1E3-D6 (antibody, IgG2b, V domains shown)
VH: QIQLVQSGPELKKPGESVKISCKASGYPFTNSGMYWVKQAPGQGLQYMGWINTEAGKPTYADDFKGRFVFFLETSASTAYLQINNLKNEDMATYFCARWGYISDNSYGWFDYWGQGTLVTVSS
VL: DTVLTQSPALAVSPGERVSISCRASEGVYSYMHWYQQNPGQQPKLLIYKASNLASGVPARFSGSGSGTDFTLTIDPVEADDTATYFCHQNWNDPLTFGSGTKLEIK
notes: as for B6
B9: BEW-9E3-B9 (antibody, IgG2a, V domains shown)
VH: QIQLVQSGPELKKPGESVKISCKASGYTFTNYGMYWVKQAPGQGLQYMGWINTETGKPTYADDFKGRFVFFLETSASTAFLQINNLKNEDMATYFCARPSDYYDGFWFPYWGQGALVTVSS
VL: B8 VL with V3I, V18I, Y29N, H88Q, N90S
notes: as for B4
B10: BEW-10H2-B9 (antibody, IgG2b, V domains shown)
VH: QIQLVQSGPELKKPGESVKISCKASGYSFTNFGLYWVKQAPGQGLQYMGWIDTETGKPTYADDFRGRFVFFLETSASTAYLQINNLKNEDMATYFCARVYGYPSWYFDFWGPGTMVTVSS
VL: DIQMTQSPASLSTSLEEIVTITCQASQDIDNYLSWYQQKPGKSPQLLIHSATSLADGVPSRFSGSRSGTQFSLKIHRLQVEDTGIYYCLQHFFPPWTFGGGTKLELK
notes: as for B6
B11: hBEW-1E3.1 (antibody, V domains shown)
VH: EIQLVQSGSELKKPGASVKVSCKASGYPFTNSGMYWVKQAPGQGLEYMGWINTEAGKPTYADDFKGRFVFSLDTSVSTAYLQISSLKAEDTAVYFCARWGYISDNSYGWFDYWGQGTLVTVSS
VL: ETVLTQSPATLSLSPGERATLSCRASEGVYSYMHWYQQKPGQQPRLLIYKASNLASGVPARFSGSGSGTDFTLTISSLEPEDFAVYFCHQNWNDPLTFGQGTKLEIK
notes: Humanized IgG
B12: hBEW-1E3.4 (antibody, V domains shown)
VH: B11 VH
VL: ATQLTQSPSSLSASVGDRVTISCRASEGVYSYMHWYQQKPGKQPKLLIYKASNLASGVPSRFSGSGSGTDFTLTISSLQPEDFATYFCHQNWNDPLTFGQGTKLEIK
notes: Humanized IgG
B13: hBEW-1E3.5 (antibody, V domains shown)
VH: B11 VH with S9A, L11V, V69T, S71T, V76T, Q82E, S84R, K87R, A88S, E89D
VL: B12 VL
notes: Humanized IgG
B14: hBEW-1E3.2 (antibody, V domains shown)
VH: B11 VH with S9A, L11V, V69T, S71T, V76T, Q82E, S84R, K87R, A88S, E89D
VL: B11 VL
notes: Humanized IgG
B15: 9E8.4-GS-4G8.3 DVD-Ig (PR-1563988) (bispecific antibody, human IgG1, kappa, L234A L235A)
heavy: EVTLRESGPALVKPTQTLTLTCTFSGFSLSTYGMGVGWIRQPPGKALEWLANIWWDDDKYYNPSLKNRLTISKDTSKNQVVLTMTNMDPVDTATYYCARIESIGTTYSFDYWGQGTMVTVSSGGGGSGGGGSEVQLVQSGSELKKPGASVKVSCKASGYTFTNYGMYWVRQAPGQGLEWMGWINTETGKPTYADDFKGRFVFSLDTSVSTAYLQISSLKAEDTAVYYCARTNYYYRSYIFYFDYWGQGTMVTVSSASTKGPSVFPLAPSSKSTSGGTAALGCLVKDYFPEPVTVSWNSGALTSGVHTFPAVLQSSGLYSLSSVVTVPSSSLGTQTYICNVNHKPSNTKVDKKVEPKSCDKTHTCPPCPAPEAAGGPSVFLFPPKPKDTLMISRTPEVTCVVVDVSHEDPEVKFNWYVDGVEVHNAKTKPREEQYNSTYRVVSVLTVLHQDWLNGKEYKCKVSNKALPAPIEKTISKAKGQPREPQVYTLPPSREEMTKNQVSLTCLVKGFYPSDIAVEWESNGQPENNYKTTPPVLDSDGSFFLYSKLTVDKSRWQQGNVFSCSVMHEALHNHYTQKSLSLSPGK
light: EFVLTQSPGTLSLSPGERATLSCERSSGDIGDSYVSWYQQKPGQAPRLVIYADDQRPSGIPDRFSGSGSGTDFTLTISRLEPEDFAVYYCQSYDINIDIVFGGGTKVEIKGGGSGGGGSGDTVLTQSPATLSLSPGERATLSCRASESVSTHMHWYQQKPGQAPRLLIYGASNLESGVPARFSGSGSGTDFTLTISSLEPEDFAVYFCQQSWNDPFTFGQGTKLEIKRTVAAPSVFIFPPSDEQLKSGTASVVCLLNNFYPREAKVQWKVDNALQSGNSQESVTEQDSKDSTYSLSSTLTLSKADYEKHKVYACEVTHQGLSSPVTKSFNRGEC

Sequence of recombinant rat PDGF-BB (Q05028 74-182 limits assumed): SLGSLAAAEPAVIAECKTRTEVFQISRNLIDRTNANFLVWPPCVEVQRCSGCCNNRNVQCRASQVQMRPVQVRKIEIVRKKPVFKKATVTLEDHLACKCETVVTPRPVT

One experiment has as its target recombinant rat PDGF-BB (rat, UniProt Q05028 74-182). As to the kind of experiment: cell-based or functional assay.
With B1, the “Potency IC50 (nM) ratPDGF-BB (NIH-3T3 proliferation)” value was determined as 0.65 nM.
Still for that read-out and setting: then B2, with 0.21 nM.
As to B3, the “Potency IC50 (nM) ratPDGF-BB (NIH-3T3 proliferation)” value was found to be 1.36 nM.

Another experiment deals with recombinant murine PDGF-BB (mouse, UniProt P31240 82-190). The experiment in a line: cell-based or functional assay.
Sequence of recombinant murine PDGF-BB (P31240 82-190 limits assumed): as the sequence (Q05028 74-182 limits assumed) above, with V83I, V102I counted along it
Regarding B1, the “Potency IC50 (nM) mPDGF-BB (NIH-3T3 proliferation)” value (from here on “Potency IC50 (nM) mPDGF-BB”) is 0.29 nM.
As to B2, the “Potency IC50 (nM) mPDGF-BB” value was 0.11 nM.
In the case of B3, the “Potency IC50 (nM) mPDGF-BB” value came to 0.44 nM.

The next experiment addresses T1, Human VEGF-A 165 (human, UniProt P15692 207-395).
T1 construct: Recombinant; also called huVEGF-A165; hVEGF165
The experiment in a line: receptor competition ELISA, hVEGF165 binding to coated hVEGF-R2-Fc. As to the method: To identify molecules that could block the binding of hVEGF₁₆₅ to the hVEGF-R2 (KDR/Flk-1) receptor, a competition ELISA was performed. […] Plates were then washed four times with wash buffer (TBS, 0.05% Tween-20) and blocked with Superblock blocking buffer (Thermo Scientific, cat#37535). […] The pre-incubated sample/hVEGF₁₆₅ complex was added to the coated plate at 50 μL in duplicate and incubated for 30 minutes at 25° C. with shaking. Following incubation, plates were washed four times with wash buffer. Streptavidin-polyHRP-40 (Fitzgerald cal#65r-s104phrp) was diluted in assay diluent (10% Superblock containing 0.05% surfactamps) and added to plates (50 μL) for 45 minutes at 25° C. with shaking. Plates were washed four times with wash buffer and developed with the addition of Enhanced K-blue TMB substrate (Neogen cat#308177). The reaction was stopped with 2N sulfuric acid (VWR, cat# BDH3500-1) and the absorbance was read at 450 nm-570 nm. A decrease in observed optical density indicates the test molecule is blocking the hVEGF₁₆₅ binding to the hVEGF-R2-Fc. Data was analyzed using Softmax Pro 4.8 software and IC₅₀ values calculated using a sigmoidal dose response (variable slope) fit in GraphPad Prism 5.
Anti-VEGF-A antibodies derived from rat hybridomas were characterized for binding, function and cross-reactivity in a panel of assays. Supernatants were tested for the ability to bind hVEGF₁₆₅ (Example 1.3) and block binding of hVEGF₁₆₅ to hVEGFR2 in a competition ELISA format (Example 1.4).
T1 sequence (P15692 other isoform, or with tags, fused parts or gaps limits assumed): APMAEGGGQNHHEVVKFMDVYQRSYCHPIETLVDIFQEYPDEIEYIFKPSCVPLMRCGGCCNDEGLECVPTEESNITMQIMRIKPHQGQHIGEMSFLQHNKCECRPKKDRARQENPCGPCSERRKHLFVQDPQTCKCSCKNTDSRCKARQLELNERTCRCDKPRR
In general, IC50 refers to the concentration at which inhibition is half-maximal. The low end stands for greater potency, the high end for weaker potency. For the molecule B4, the IC50 amounted to 0.342 nM.
The molecule B5 yielded an IC50 of 0.249 nM.
For B6, the IC50 turned out to be 0.197 nM.
On the same count and under the same terms, the figure for B7 is 0.156 nM; for B8 it is 0.62 nM; for B9 it is 0.124 nM.
Molecule B10 showed an IC50 of 0.42 nM.

The next experiment has as its target T2, Human VEGF-A 165 (human, UniProt P15692 207-395). The experiment in a line: cell-based or functional assay.
T2 sequence (P15692 other isoform, or with tags, fused parts or gaps limits assumed): as above
Consider B11, for which the “hVEGF165 IC50 (nM), HMVEC-d proliferation” value (shortened to “hVEGF165 IC50 (nM)”) was found to be 0.138 nM.
Still for that read-out and setting: then B12, with 0.212 nM.
Take B13: the “hVEGF165 IC50 (nM)” value was found to be 0.184 nM.
Regarding B14, the “hVEGF165 IC50 (nM)” value is 0.161 nM.

In the next experiment the target is recombinant human VEGF165 (human, UniProt P15692 207-395). As to the kind of experiment: cell-based or functional assay.
Sequence of recombinant human VEGF165 (P15692 other isoform, or with tags, fused parts or gaps limits assumed): as above
For the molecule B15, the “HMVEC-d hVEGF165 Potency IC50” value was 2.64 nM.

In another experiment the target is recombinant human PDGF-BB (human, UniProt P01127 82-190). The experiment in a line: cell-based or functional assay.
Sequence of recombinant human PDGF-BB (P01127 82-190 limits assumed): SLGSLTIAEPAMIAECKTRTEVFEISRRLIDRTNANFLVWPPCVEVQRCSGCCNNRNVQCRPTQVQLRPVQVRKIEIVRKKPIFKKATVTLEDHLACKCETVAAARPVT
With B15, the “NIH-3T3 hPDGF-BB Potency IC50” value worked out at 0.076 nM.

The target of the next experiment is T2, Human VEGF-A 165. The experiment in a line: SPR (Biacore), antibody captured via anti-human Fc, antigen in solution. The protocol:
For example, approximately 9000 RU of goat anti-human Fc specific polyclonal antibody (Thermo Fisher Scientific Inc., Rockford, Ill.) diluted in 10 mM sodium acetate (pH 4.5) is directly immobilized across a CM5 research grade biosensor chip using a standard amine coupling kit according to manufacturer's instructions and procedures at 25 μg/ml. Unreacted moieties on the biosensor surface were blocked with ethanolamine. For kinetic analysis, rate equations derived from the 1:1 Langmuir binding model were fitted simultaneously to multiple antigen injections (using global fit analysis) with the use of Scrubber 2 (BioLogic Software), Biacore Biaevaluation 4.0.1 software or Biacore T100 Evaluation software. Purified antibodies or DVD-Ig molecules were diluted in running buffer for capture across goat anti-human Fc reaction surfaces. Antibodies or DVD-Ig molecules to be captured as a ligand (1 μg/ml) were injected over reaction matrices at a flow rate of 10 μl/minute. During the assay, all measurements were referenced against the capture surface alone (i.e., with no captured antibody or DVD-Ig molecule). […] The equilibrium dissociation constant KD (M) of the reaction between antibodies and the target antigen was then calculated from the kinetic rate constants by the following formula: KD=Koff/Kₒₙ. Binding was recorded as a function of time and kinetic rate constants were calculated.
The Kd is the concentration at which binding is half-saturated. Low values mean tighter binding, high ones weaker binding. One may read the kon as the second-order rate constant of association. High values mean faster complex formation, low ones slower complex formation. For B11, the Kd amounted to 0.0077 nM and the kon was 1.1e+07 M⁻¹ s⁻¹.
B12 registered an equilibrium dissociation constant (Kd) of 0.0097 nM and a kon of 9.8e+06 M⁻¹ s⁻¹.
As for B13, binding was characterised by a dissociation constant (Kd) of 0.01 nM and the kon is 1e+07 M⁻¹ s⁻¹.
The matching figures for B14: 0.0092 nM and 1.1e+07 M⁻¹ s⁻¹.
